{"source": "paper PMC2444025", "key": {"[1]": {"tested_on": "Immunoglobulin E (IgE), human myeloma (human)", "test": "DNA microarray fluorescence", "settings": "Blocking buffer: 10 mg/mL casein, 0.1% Tween-20, 8.1 mM Na2HPO4 (printed N2HPO4), 1.1 mM KH2PO4, 2.7 mM KCl, 137 mM NaCl (138 mM also listed), 1 mM MgCl2, pH 7."}, "[2]": {"tested_on": "Immunoglobulin E (IgE), human myeloma (human)", "settings": "in solution; full-length clone; Blocking buffer: 10 mg/mL casein, 0.1% Tween-20, 8.1 mM Na2HPO4 (printed N2HPO4), 1.1 mM KH2PO4, 2.7 mM KCl, 137 mM NaCl (138 mM also listed), 1 mM MgCl2, pH 7.; cited from earlier work"}}, "note": "pKd: −log10 of the molar value. Where two headings read alike, the source gives them in different places."}
{"sequence": "CTACCTACGATCTGACTAGCCAATGAGTGTACCACGTTTATCCGTCCCTCCTAGTGGCGTGCTTACTCTCATGTAGTTCC [D 17.0]", "values": [{"measurement": "pKd", "setting": "[1]", "value": "< 7.00"}, {"measurement": "pKd", "setting": "[2]", "value": 8.05}]}
